One molecule from article PMC4932183 can be followed below.

Assay [1] concerns the target T1, pro-domain of activin A, N-terminal His6-tagged, released from engineered pro-activin A by HRV 3C protease (human).
T1 sequence (P08476 whole entry, looked up): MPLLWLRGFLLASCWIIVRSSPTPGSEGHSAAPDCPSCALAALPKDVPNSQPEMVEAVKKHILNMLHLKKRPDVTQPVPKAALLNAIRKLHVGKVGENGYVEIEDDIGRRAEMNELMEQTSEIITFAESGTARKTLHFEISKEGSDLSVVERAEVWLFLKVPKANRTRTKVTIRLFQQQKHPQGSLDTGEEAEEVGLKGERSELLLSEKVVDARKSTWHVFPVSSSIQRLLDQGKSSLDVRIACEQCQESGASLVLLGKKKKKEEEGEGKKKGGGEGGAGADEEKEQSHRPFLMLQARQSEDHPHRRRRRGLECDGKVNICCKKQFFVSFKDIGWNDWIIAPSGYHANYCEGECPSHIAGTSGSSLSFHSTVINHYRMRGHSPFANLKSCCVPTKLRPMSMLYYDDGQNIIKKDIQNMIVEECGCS
The experiment in a line: BLI; His6-tagged pro-activin A complex immobilised through the pro-domain on anti-penta-HIS biosensors, dipped into blank buffer for 600 s; dissociation of the mature domain; 30 °C. (Biolayer interferometry detects binding as a change in optical thickness at a sensor tip.)

Assay [2] has the same target. The experiment in a line: BLI; reverse phase purified His6-tagged pro-domain immobilised at 25 μg/ml on anti-penta-HIS biosensors; mature activin A in solution; 300 s association, 300 s dissociation; Octet RED96, 30 °C.
Assay [3] has the same target. The experiment in a line: BLI; His6-tagged pro-activin A complex immobilised through the pro-domain on anti-penta-HIS biosensors, dipped into buffer containing 100 nM FST-288 for 600 s; dissociation of the mature domain; 30 °C.
The target is the same in assay [4]. The experiment in a line: BLI; pro-activin A complex immobilised at 50 μg/ml on anti-penta-HIS biosensors, mature domain removed with 16 μM FST-288, then mature activin A in solution; 600 s association, 600 s dissociation; 30 °C.

B1: mature activin A (disulfide-linked dimer of the mature domain of inhibin βA) (ligand)
chain: GLECDGKVNICCKKQFFVSFKDIGWNDWIIAPSGYHANYCEGECPSHIAGTSGSSLSFHSTVINHYRMRGHSPFANLKSCCVPTKLRPMSMLYYDDGQNIIKKDIQNMIVEECGCS
Consider B1, for which the koff in assay [1] is 0.00299 s⁻¹. The Kd is 5 nM in assay [2] and 2.3 nM in assay [4]. The dissociation rate with 100 nM FST-288 in assay [3] turned out to be 0.00445 s⁻¹.

Broadly, the koff is the first-order rate constant of dissociation. The Kd is the free concentration of one partner at which half of the binding sites on the other are occupied at equilibrium, for simple one-to-one binding.
